Laboratory results published in patent US20090149389A1.
Values belong to the binder of their own block, whether it stands above or below them. Where no end group is shown, it is not given here. [ ]: non-standard residue; d: D form.

What was measured:
Assay in all cases: cell-based or functional assay
MAPKAP kinase II (MK2) = MAPKAP kinase II (MK2) (UniProt P49137)
[1] = target: PKG1α (h) (human (h)), Q13976
[2] = target: PKC β 1 (h) (human (h)), P05771
Chain of PKC β 1 (h) (human (h)), P05771 (P05771 whole entry): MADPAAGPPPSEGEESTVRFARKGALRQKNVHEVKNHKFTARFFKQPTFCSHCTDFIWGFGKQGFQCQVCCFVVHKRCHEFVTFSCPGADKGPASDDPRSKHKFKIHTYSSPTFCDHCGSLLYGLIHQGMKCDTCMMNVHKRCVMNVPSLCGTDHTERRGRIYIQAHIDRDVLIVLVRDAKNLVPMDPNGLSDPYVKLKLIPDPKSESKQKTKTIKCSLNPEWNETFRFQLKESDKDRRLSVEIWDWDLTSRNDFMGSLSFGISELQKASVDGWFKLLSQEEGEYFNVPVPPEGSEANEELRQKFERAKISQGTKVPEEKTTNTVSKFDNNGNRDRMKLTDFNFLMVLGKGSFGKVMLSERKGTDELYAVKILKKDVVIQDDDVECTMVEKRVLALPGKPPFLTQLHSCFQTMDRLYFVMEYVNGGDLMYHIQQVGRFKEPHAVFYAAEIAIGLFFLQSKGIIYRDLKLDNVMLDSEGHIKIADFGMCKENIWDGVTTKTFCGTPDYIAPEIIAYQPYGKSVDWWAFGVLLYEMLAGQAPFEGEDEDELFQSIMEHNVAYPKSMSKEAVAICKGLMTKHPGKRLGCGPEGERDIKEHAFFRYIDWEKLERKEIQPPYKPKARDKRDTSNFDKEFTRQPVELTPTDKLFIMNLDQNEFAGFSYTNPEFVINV

Chain of MAPKAP kinase II (MK2) (P49137 whole entry): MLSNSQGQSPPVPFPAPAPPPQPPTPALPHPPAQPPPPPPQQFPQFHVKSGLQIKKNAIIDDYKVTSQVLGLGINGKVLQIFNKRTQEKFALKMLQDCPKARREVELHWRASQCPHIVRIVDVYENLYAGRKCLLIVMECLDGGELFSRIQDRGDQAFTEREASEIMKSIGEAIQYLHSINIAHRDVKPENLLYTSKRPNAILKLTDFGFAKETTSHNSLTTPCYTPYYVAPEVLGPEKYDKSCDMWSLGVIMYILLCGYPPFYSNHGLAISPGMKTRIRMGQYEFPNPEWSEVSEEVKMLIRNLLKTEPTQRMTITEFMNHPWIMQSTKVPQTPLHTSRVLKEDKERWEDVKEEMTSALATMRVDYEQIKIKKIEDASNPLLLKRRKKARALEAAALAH
Chain of PKG1α (h) (human (h)), Q13976 (Q13976 whole entry): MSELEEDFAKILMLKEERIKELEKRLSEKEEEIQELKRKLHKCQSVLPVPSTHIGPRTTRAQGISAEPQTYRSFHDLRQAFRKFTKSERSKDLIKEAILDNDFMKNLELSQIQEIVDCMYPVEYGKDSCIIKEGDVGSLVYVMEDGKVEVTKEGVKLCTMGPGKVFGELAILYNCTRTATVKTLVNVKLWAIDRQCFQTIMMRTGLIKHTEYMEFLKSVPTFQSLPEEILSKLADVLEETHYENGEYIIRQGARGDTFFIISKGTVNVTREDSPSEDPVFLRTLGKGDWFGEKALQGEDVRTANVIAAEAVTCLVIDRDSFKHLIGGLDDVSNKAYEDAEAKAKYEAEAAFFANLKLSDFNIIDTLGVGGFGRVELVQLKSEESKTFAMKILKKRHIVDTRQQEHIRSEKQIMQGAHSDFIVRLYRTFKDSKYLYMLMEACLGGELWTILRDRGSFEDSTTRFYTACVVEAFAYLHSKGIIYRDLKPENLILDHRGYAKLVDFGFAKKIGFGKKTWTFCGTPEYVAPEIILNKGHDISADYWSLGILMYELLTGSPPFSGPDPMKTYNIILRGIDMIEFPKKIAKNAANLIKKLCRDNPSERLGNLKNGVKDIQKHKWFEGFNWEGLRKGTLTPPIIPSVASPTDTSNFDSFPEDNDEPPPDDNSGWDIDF

% of … [SEQ ID NO: 124] Reaction Velocity at an Inhibitor Concentration of 100 µM (MAPKAP kinase II (MK2)): 306%
Binder: KALN[dR]QLGVAA (peptide, from a related filing) [KALNdRQLGVAA]

Profile-1 @ = 100 µm (kinase profiler assay) [1]: 12 | Profile-1 @ = 100 µm (kinase profiler assay) [2]: 73
Binder: FAKLAARLYRKALARQLGVAA

% of … [SEQ ID NO: 124] Reaction Velocity at an Inhibitor Concentration of 100 µM (MAPKAP kinase II (MK2)): 95%
Binder: KAL[dN]RQLGVAA (peptide, from a related filing) [KALdNRQLGVAA]

% of … [SEQ ID NO: 124] Reaction Velocity at an Inhibitor Concentration of 100 µM (MAPKAP kinase II (MK2)): 260%
Binder: KALNRQLG[dV]AA (peptide, from a related filing) [KALNRQLGdVAA]

% of … [SEQ ID NO: 124] Reaction Velocity at an Inhibitor Concentration of 100 µM (MAPKAP kinase II (MK2)): 146%
Binder: KA[dL]NRQLGVAA (peptide, from a related filing) [KAd…]

Profile-1 @ = 100 µm (kinase profiler assay) [1]: 25 | Profile-1 @ = 100 µm (kinase profiler assay) [2]: 23
Binder: KAFAKLAARLYRKALARQLGVAA

Profile-1 @ = 30 µm (kinase profiler assay) [1]: 16 | Profile-1 @ = 30 µm (kinase profiler assay) [2]: 8
Binder: WLRRIKAWLRRIKALNRQLGVAA
